According to PMC4536637, “Unique Toll-Like Receptor 4 Activation by NAMPT/PBEF Induces NFκB Signaling and Inflammatory Lung Injury” (Scientific Reports, 2015):

Biological target: T1, recombinant human TLR4 (Toll-like receptor 4) (human, UniProt O00206 24-631)
T1 construct: Toll-like receptor 4, human, recombinant; No catalogue number is printed; also called rTLR4; source: bought: R&D Systems
Assay: SPR; Bio-Rad ProteOn XPR36, GLC chip; Bethyl PBEF antibody covalently immobilised (5000 RU); rPBEF only (100 nM), rTLR4 only (1 uM) and pre-mixed rPBEF-rTLR4 injected over the antibody surface; PBST (10 mM phosphate, 150 mM NaCl, 0.05% Tween20, pH 7.4)
Conditions: both partners purified

T1 sequence (O00206 24-631): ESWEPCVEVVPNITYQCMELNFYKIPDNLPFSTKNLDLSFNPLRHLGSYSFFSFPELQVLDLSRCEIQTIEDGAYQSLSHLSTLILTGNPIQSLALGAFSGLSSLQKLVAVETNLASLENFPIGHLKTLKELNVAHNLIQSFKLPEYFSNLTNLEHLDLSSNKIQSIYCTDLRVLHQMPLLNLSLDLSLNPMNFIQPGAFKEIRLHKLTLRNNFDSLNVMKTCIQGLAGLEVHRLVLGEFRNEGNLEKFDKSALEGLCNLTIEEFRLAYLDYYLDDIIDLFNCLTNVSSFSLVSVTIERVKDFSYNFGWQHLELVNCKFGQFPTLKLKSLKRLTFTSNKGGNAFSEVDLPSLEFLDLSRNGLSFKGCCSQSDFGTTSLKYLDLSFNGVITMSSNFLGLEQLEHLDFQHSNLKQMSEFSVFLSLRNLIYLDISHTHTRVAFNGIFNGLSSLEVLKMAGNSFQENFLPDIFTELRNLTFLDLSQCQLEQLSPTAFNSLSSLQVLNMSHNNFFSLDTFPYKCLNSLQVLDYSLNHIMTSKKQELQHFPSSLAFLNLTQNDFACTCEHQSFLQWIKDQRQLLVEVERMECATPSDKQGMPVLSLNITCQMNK

binding result: binds
B1: recombinant human NAMPT/PBEF (nicotinamide phosphoribosyl-transferase / pre-B cell colony-enhancing factor) (natural protein, UniProt P43490 1-491, looked up)
chain: MNPAAEAEFNILLATDSYKVTHYKQYPPNTSKVYSYFECREKKTENSKLRKVKYEETVFYGLQYILNKYLKGKVVTKEKIQEAKDVYKEHFQDDVFNEKGWNYILEKYDGHLPIEIKAVPEGFVIPRGNVLFTVENTDPECYWLTNWIETILVQSWYPITVATNSREQKKILAKYLLETSGNLDGLEYKLHDFGYRGVSSQETAGIGASAHLVNFKGTDTVAGLALIKKYYGTKDPVPGYSVPAAEHSTITAWGKDHEKDAFEHIVTQFSSVPVSVVSDSYDIYNACEKIWGEDLRHLIVSRSTQAPLIIRPDSGNPLDTVLKVLEILGKKFPVTENSKGYKLLPPYLRVIQGDGVDINTLQEIVEGMKQKMWSIENIAFGSGGGLLQKLTRDLLNCSFKCSYVVTNGLGINVFKDPVADPNKRSKKGRLSLHRTPAGNFVTLEEGKGDLEEYGQDLLHTVFKNGKVTKSYSFDEIRKNAQLNIELEAAHH
notes: nicotinamide phosphoribosyl-transferase (NAMPT/PBEF/visfatin), human, bioactive non-denatured recombinant protein; also called rPBEF; visfatin; source: bought: MBL International
